Test results from paper PMC7181697 (2020).
Each block holds one binder with its values, some of them ahead of it.

Columns and labels:
Experiment in all cases: ITC
[1] = molecular target: REV7^WT-REV3(1871–2021) (human, UniProt Q9UI95 1-211; O60673 1871-2021)
[2] = molecular target: REV7^K129A (human, UniProt Q9UI95 1-211, K129A)
[3] = molecular target: REV7^Y63A (human, UniProt Q9UI95 1-211, Y63A)
[4] = molecular target: REV7^W171A (human, UniProt Q9UI95 1-211, W171A)
REV7^W171A, sequence (Q9UI95 whole entry W171A): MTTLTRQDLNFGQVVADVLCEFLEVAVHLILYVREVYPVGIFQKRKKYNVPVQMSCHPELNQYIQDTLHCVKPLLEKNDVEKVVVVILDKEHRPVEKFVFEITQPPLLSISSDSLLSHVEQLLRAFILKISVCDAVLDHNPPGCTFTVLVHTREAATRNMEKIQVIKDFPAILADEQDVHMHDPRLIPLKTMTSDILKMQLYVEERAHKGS

REV7^K129A, sequence (Q9UI95 whole entry K129A): as the sequence (Q9UI95 whole entry W171A) above, with K129A, A171W counted along it
REV7^WT-REV3(1871–2021), sequence (Q9UI95 whole entry, chain 1 of 2): as the sequence (Q9UI95 whole entry W171A) above, with A171W counted along it
REV7^WT-REV3(1871–2021), sequence (O60673 1871-2021, chain 2 of 2): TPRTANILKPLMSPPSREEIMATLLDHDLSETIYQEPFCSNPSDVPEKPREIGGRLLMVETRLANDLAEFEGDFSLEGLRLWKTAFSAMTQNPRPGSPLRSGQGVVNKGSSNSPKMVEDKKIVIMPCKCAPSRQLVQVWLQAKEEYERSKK
REV7^Y63A, sequence (Q9UI95 whole entry Y63A): as the sequence (Q9UI95 whole entry W171A) above, with Y63A, A171W counted along it

Kd [1]: 1600 nM
B1: cREV1 CTD (chimeric REV1 CTD: POL κ RIR fused to the N-terminus of REV1 CTD) (other)
chain: SHKKSFFDKKRSERKWGLSSLQSDPAGCVRPPAPNLAGAVEFNDVKTLLREWITTISDPMEEDILQVVKYCTDLIEEKDLEKLDLVIKYMKRLMQQSVESVWNMAFDFILDNVQVVLQQTYGSTLKVT

Kd [2]: 7.3 nM
B2: REV3(1847-1906) (domain or fragment)
chain: MLTPTPDSSPRSTSSPSQSKNGSFTPRTANILKPLMSPPSREEIMATLLDHDLSETIYQE

Kd [3]: 160 nM
Kd [4]: 170 nM
Kd [2]: 4.8 nM
B3: SHLD3(1–82) with C-terminal His6-tag (domain or fragment)
chain: MTTEVILHYRPCESDPTQLPKIAEKAIQDFPTRPLSRFIPWFPYDGSKLPLRPKRSPPVISEEAAEDVKQYLTISEHDAKSH
